In the supplement of paper PMC10065799, “High-throughput profiling of sequence recognition by tyrosine kinases and SH2 domains using bacterial peptide display” (eLife, 2023):

Legend:
Grb2 SH2 = Grb2 SH2 (UniProt P62993); test: SH2 binding enrichment of the phosphorylated peptide, bacterial display (enrichment ratio); higher = better substrate or ligand; peptides without Tyr show the background
SHP2-C SH2 = test: as above
c-Src SH2 = test: as above
EPHB1 = EPHB1 (UniProt P54762); test: phosphorylation enrichment, bacterial display (enrichment ratio); higher = better substrate or ligand; peptides without Tyr show the background
Fyn = Fyn (UniProt P06241); test: as above
EPHB2 = EPHB2 (UniProt P29323); test: as above
Fer (mouse) = test: as above
MERTK = MERTK (UniProt Q12866); test: as above
Jak2 = Jak2 (UniProt O60674); test: as above
Hck = Hck (UniProt P08631); test: as above
FGFR1 = FGFR1 (UniProt P11362); test: as above
c-Src = test: as above
Fes = Fes (UniProt P07332); test: as above
FGFR3 = FGFR3 (UniProt P22607); test: as above
c-Abl (mouse) = test: as above
AncSZ = test: as above
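Wherever SH2 binding enrichment of the phosphorylated peptide, bacterial display is given: peptide library displayed on the E. coli surface as eCPX fusions, selected cells deep-sequenced, score is each peptide's frequency after selection divided by its frequency in the input.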
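Wherever phosphorylation enrichment, bacterial display is given: 11-residue human phosphosite peptides and single-mutation variants displayed on the E. coli surface, counted by deep sequencing, each peptide's frequency after selection divided by its frequency in the unselected input library; frequency after pTyr selection over input frequency; kinase dosed for 20-30% of maximal phosphorylation in three min.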

Fes, sequence (P07332 whole entry, looked up): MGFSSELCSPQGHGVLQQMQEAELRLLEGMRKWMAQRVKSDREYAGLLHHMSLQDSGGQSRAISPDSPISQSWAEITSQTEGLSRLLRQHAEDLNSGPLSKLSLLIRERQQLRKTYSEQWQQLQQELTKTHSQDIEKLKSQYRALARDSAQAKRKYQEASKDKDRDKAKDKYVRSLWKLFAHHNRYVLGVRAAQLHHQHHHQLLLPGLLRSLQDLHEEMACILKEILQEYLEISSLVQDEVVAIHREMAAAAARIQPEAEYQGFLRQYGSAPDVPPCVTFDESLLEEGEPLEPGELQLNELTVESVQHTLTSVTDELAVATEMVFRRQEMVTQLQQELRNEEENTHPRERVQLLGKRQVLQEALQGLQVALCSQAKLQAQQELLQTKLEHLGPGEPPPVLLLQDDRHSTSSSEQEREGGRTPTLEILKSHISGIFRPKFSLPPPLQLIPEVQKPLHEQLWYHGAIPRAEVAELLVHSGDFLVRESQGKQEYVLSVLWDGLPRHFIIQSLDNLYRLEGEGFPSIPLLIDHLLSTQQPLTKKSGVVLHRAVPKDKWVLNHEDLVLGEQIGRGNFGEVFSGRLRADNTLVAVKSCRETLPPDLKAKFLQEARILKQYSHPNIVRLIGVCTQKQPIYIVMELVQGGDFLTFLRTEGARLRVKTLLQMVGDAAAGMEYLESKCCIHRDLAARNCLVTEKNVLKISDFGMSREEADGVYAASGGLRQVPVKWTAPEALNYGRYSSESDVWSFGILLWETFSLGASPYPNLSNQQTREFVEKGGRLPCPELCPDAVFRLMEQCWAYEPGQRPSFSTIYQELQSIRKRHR
Jak2, sequence (O60674 whole entry, looked up): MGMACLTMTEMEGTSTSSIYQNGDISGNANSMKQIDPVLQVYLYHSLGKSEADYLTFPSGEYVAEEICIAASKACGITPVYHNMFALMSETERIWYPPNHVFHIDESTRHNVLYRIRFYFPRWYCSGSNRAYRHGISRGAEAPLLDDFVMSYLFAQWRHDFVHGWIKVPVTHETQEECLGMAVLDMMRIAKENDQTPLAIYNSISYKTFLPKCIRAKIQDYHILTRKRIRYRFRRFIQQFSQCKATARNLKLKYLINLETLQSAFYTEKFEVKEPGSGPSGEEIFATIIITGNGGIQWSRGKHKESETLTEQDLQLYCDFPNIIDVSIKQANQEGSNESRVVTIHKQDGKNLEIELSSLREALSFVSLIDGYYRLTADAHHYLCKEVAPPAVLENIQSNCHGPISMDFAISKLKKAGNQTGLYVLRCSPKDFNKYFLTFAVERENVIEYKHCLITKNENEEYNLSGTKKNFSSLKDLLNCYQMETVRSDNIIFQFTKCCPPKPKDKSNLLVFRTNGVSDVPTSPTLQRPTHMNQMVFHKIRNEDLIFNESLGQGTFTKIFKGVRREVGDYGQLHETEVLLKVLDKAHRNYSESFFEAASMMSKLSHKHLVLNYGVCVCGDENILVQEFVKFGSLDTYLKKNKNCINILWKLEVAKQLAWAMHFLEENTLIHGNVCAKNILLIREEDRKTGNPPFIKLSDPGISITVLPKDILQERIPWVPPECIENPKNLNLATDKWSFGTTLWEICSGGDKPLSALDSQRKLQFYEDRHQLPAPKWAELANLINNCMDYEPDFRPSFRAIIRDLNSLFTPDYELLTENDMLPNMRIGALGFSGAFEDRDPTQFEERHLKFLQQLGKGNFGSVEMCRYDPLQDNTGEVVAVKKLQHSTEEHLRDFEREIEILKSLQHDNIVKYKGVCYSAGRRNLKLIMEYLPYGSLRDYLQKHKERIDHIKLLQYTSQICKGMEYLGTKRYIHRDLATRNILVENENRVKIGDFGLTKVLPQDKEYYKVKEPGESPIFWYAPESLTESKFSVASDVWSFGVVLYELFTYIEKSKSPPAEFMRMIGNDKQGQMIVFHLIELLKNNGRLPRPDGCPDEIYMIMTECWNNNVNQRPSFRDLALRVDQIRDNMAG
Fyn, sequence (P06241 whole entry, looked up): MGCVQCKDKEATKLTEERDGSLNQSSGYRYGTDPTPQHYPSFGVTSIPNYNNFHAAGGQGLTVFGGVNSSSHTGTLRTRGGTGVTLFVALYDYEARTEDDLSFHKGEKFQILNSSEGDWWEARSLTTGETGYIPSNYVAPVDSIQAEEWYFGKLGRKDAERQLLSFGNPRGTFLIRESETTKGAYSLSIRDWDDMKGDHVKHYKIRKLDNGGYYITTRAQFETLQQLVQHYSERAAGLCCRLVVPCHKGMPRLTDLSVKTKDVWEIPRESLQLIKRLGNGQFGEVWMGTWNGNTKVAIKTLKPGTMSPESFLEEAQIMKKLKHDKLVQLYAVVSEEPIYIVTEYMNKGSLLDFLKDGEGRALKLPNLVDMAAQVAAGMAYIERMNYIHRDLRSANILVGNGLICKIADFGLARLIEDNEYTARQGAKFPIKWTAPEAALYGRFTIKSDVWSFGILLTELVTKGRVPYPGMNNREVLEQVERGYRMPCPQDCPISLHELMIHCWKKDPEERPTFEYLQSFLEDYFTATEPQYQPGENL
FGFR3, sequence (P22607 whole entry, looked up): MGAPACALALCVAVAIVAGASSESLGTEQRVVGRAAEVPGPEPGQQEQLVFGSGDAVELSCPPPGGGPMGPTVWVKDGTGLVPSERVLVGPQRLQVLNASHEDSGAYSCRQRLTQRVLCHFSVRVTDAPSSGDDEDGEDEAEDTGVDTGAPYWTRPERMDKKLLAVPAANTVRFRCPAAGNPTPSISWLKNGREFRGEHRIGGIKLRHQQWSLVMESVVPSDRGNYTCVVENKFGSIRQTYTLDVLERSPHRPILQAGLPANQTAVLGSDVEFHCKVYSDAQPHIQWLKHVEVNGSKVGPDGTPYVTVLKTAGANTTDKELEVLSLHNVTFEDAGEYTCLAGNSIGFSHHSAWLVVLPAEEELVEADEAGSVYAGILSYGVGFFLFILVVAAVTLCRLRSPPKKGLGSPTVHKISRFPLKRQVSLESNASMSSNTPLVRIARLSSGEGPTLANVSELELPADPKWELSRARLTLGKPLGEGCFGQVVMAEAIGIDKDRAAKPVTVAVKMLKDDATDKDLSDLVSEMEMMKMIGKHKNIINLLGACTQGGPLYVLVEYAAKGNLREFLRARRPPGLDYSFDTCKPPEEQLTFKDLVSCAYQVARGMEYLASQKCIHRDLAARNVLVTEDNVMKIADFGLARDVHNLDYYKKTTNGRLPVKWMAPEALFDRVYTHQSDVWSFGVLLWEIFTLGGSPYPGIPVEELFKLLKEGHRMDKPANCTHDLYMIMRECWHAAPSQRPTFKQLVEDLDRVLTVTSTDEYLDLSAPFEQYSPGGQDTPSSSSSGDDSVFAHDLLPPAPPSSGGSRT
Hck, sequence (P08631 whole entry, looked up): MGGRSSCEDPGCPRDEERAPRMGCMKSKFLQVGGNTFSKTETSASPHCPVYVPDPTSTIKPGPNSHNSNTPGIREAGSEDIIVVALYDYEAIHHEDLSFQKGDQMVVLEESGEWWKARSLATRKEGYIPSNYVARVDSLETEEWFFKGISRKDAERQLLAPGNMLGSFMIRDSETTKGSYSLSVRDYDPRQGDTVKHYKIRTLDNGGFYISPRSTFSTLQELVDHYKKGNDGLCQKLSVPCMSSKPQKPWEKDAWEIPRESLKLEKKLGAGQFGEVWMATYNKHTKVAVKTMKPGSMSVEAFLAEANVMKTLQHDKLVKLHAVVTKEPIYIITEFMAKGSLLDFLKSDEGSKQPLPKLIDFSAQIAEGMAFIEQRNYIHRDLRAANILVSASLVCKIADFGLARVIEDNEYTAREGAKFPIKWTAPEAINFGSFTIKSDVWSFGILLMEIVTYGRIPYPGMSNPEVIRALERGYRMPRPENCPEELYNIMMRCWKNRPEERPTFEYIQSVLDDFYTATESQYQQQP
EPHB1, sequence (P54762 whole entry, looked up): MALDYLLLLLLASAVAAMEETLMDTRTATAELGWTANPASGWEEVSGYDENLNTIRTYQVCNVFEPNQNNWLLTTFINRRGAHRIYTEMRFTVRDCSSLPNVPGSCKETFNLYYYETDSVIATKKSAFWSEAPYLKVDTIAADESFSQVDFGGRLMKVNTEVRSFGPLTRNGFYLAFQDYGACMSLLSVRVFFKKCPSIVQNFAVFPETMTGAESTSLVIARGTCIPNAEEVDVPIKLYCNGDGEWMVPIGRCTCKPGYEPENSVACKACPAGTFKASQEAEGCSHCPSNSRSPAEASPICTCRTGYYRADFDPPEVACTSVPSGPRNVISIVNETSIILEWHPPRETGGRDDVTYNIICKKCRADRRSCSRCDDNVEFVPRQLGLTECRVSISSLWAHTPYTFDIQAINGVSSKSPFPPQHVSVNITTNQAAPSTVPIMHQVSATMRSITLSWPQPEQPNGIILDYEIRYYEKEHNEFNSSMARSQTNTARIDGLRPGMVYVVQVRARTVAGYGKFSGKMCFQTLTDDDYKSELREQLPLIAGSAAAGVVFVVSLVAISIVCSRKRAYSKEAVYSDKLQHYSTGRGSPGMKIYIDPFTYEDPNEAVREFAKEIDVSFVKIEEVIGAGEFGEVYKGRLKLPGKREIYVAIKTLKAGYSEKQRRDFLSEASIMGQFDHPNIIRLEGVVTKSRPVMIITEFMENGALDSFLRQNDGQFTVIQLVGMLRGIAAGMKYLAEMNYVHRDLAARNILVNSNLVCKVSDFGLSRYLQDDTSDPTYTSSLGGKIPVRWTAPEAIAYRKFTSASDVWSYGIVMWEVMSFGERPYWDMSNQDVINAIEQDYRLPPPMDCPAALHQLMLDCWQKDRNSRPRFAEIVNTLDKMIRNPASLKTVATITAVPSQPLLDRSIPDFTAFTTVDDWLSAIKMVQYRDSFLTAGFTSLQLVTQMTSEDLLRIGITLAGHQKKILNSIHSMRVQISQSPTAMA

Sequence | SH2 binding enrichment (Grb2 SH2) | SH2 binding enrichment (SHP2-C SH2) | SH2 binding enrichment (c-Src SH2) | phosphorylation enrichment (EPHB1) | phosphorylation enrichment (Fyn) | phosphorylation enrichment (EPHB2) | phosphorylation enrichment (Fer (mouse)) | phosphorylation enrichment (MERTK) | phosphorylation enrichment (Jak2) | phosphorylation enrichment (Hck) | phosphorylation enrichment (FGFR1) | phosphorylation enrichment (c-Src) | phosphorylation enrichment (Fes) | phosphorylation enrichment (FGFR3) | phosphorylation enrichment (c-Abl (mouse)) | phosphorylation enrichment (AncSZ)
LSIQTYSALNF [DES_Y423_P419S] | 0.824 | 1.43 | 1.34 | 3.92 | 4.8 | 4.34 | 2.61 | 6.97 | 1.76 | 6.9 | 0.991 | 5.21 | 2.14 | 1.09 | 1.46 | 1.58
GQRDLYSGLNQ [CD3E_Y199] | 0.852 | 0.574 | 0.822 | 2.25 | 6.14 | 2.35 | 4.76 | 5.2 | 0.594 | 12.4 | 0.449 | 6.88 | 0.749 | 0.583 | 1.06 | 1.11
GESVSYLFSHV [PRPS1_Y311] | 0.734 | 2.31 | 0.566 | 0.511 | 0.421 | 0.473 | 0.417 | 0.421 | 0.847 | 0.473 | 0.397 | 0.431 | 0.996 | 0.588 | 0.701 | 0.872
WKESWYSMRKM [FGB_Y475_G472E] | 1.08 | 0.969 | 0.708 | 0.714 | 0.554 | 0.669 | 0.535 | 0.544 | 1.33 | 0.591 | 0.513 | 0.672 | 1.34 | 0.738 | 0.792 | 1.05
PSPTRYSLSPS [RANBP2_Y785] | 0.759 | 0.454 | 0.438 | 0.536 | 0.537 | 0.856 | 0.436 | 0.56 | 0.439 | 0.515 | 0.525 | 0.597 | 0.886 | 0.577 | 1.5 | 0.976
HFMELYDLNRD [BBS2_Y648_R643H_YF] | 1.25 | 1.51 | 0.654 | 0.625 | 1.38 | 0.594 | 0.784 | 0.563 | 1.28 | 1.48 | 0.497 | 4.64 | 1.18 | 0.723 | 0.943 | 1.1
SLAARYYNWVC [FLT4_Y1230_S1235C] | 6.7 | 1.21 | 1.87 | 0.907 | 0.565 | 0.883 | 0.777 | 3.49 | 1.39 | 0.728 | 4.96 | 0.597 | 1.47 | 3.95 | 0.957 | 1.4
SIKDKYVTALC [KCNH2_Y611_Y616C] | 0.918 | 0.801 | 0.555 | 0.387 | 0.393 | 0.371 | 0.467 | 0.346 | 0.653 | 0.362 | 0.376 | 0.386 | 0.695 | 0.81 | 0.51 | 0.64
PVKDGYQMAQP [CSF1R_Y873_L868P] | 0.838 | 0.673 | 0.527 | 0.451 | 0.433 | 0.474 | 0.591 | 0.393 | 0.521 | 0.833 | 1.05 | 0.574 | 1.11 | 0.694 | 0.278 | 0.682

Further lines, with some results ahead:

SH2 binding enrichment (Grb2 SH2) | SH2 binding enrichment (SHP2-C SH2) | SH2 binding enrichment (c-Src SH2) | Sequence | phosphorylation enrichment (EPHB1) | phosphorylation enrichment (Fyn) | phosphorylation enrichment (EPHB2) | phosphorylation enrichment (Fer (mouse)) | phosphorylation enrichment (MERTK) | phosphorylation enrichment (Jak2) | phosphorylation enrichment (Hck) | phosphorylation enrichment (FGFR1) | phosphorylation enrichment (c-Src) | phosphorylation enrichment (Fes) | phosphorylation enrichment (FGFR3) | phosphorylation enrichment (c-Abl (mouse)) | phosphorylation enrichment (AncSZ)
1.02 | 0.649 | 2.15 | ADNQRYAFMPL [TMEM87B_Y460_N456D] | 1.07 | 0.503 | 0.663 | 0.502 | 6.67 | 0.673 | 0.628 | 0.733 | 0.452 | 0.812 | 0.641 | 0.781 | 0.728
0.715 | 0.621 | 0.561 | LKVDVYGRSHK [FUT3_Y222] | 0.553 | 0.324 | 0.778 | 0.441 | 0.37 | 0.588 | 0.625 | 0.782 | 0.379 | 0.869 | 1.1 | 0.629 | 1
0.735 | 0.634 | 0.59 | HYECKYVINAI [MAOA_Y268] | 0.841 | 0.507 | 0.788 | 0.506 | 0.66 | 0.95 | 0.657 | 0.557 | 0.859 | 1.61 | 0.957 | 0.86 | 1.38
0.917 | 0.71 | 0.655 | DPHQQYFIAMD [TBX15_Y159_YF] | 0.504 | 0.551 | 0.577 | 0.396 | 0.511 | 1.06 | 0.544 | 1.02 | 0.637 | 1.1 | 1.19 | 0.792 | 0.93
1.02 | 0.65 | 0.488 | SGEKPYKCSEC [ZNF543_Y283] | 0.5 | 0.533 | 0.502 | 0.456 | 0.58 | 0.765 | 0.531 | 0.535 | 0.544 | 0.829 | 0.551 | 0.654 | 0.664
0.867 | 0.772 | 0.579 | DSLASYLDKVR [KRT10_Y160_R156S] | 0.491 | 0.448 | 0.4 | 0.416 | 0.46 | 0.682 | 0.469 | 0.5 | 0.46 | 0.78 | 0.558 | 0.629 | 0.701
0.749 | 0.633 | 0.441 | SFDLDYDSVQP [MYC_Y16_N11S_YF] | 0.644 | 0.833 | 0.911 | 0.748 | 0.586 | 1.3 | 0.688 | 0.674 | 0.924 | 1.31 | 0.749 | 0.811 | 1.78
0.831 | 0.579 | 0.46 | VPEANYTSDEE [STK33_Y439_D436E] | 0.897 | 0.665 | 0.691 | 0.721 | 0.699 | 1.99 | 0.576 | 0.607 | 0.614 | 1.52 | 0.947 | 1.17 | 1.42
